Consider 2 molecules from patent US10704026B2, “Ex vivo culture, proliferation and expansion of intestinal epithelium” (The Board of Trustees of the Leland Stanford Junior …, priority 2008, dated 2020).

Entries after “also recorded” stand apart in the source; their conditions may differ.

In one assay the test system is intestinal explants. In words: Growth of intestinal explant (sphere) cultures under Wnt modulation. Type of assay: cell-based, mouse. Conditions: for explant growth: intestinal explant culture. An excerpt:
Small intestine or colon of C57Bl/6J mice is procured under sterile conditions, minced and mixed with type I collagen gel. Subsequently, these explant containing gels are poured onto transwell cell culture inserts with a collagen gel layer. Transwell cell culture inserts are available commercially from a number if resources e.g. Corning, Signaaldrich. These cell culture inserts are placed into secondary outer dishes containing HAMs F-12 with 20% FCS. Proliferation and histology of the explant is depicted in FIG. 4A-4D. Electron micrographs of the intestinal explants in FIG. 5A-5E reveal that the ultrastructure of the intestinal epithelium is preserved.
Before preparing the tissue, an inner container with a gel as bottom layer was made. The procedure described herein used Cellmatrix type I-A (Nitta Gelatin Inc.) e.g. collagen gel. The inner dish has permeable membrane bottom. Millicell culture plate inserts (Millicell-CM, Millipore Co.) or Falcon cell culture inserts (BD Co.) was used as the inner dish. 1 ml of collagen gel solution was poured into a 30-mm diameter inner dish in combination with 60 mm diameter outer dish and 2 ml of culture media. 0.3 ml collagen gel solution was poured into 10-mm diameter inner dish in combination with a 24-well outer dish and 0.5 ml of culture media.
Small or large intestine was removed from mouse (fetus, neonate, juvenile, or adult) aseptically. The removed tissue was immediately immersed in ice-cold PBS or other culture media/tissue preservative solution such as Ham's F12, MEM, etc. The small intestine or colon are opened lengthwise and washed in ice-cold PBS to remove all luminal contents. The washed tissue was minced with scissors to a size less than about 0.1 mm^3. The minced tissue was mixed in ice-cold collagen gel solution and poured onto the prepared inner dish. The inner dish was placed in an outer dish. The gel was solidified at 37° C. for 30 min. After solidification of the gel, culture media was poured into outer dish. Ham's F12 supplemented with 20% fetal calf serum and 50 μg/ml gentamicin was used as culture medium. The culture can be sustained for over a year at 37° C. in a humidified atmosphere of 5% CO2 in air. Medium was changed about every 7 days.
Three-Dimensional Explant Culture System. The mouse small and large intestine (optimally postnatal days 0-2) was opened lengthwise and washed in PBS to remove all luminal contents. A 1 cm segment was minced immediately and extensively on ice with iris scissors. The minced tissues were embedded in a three-dimensional collagen gel using a double-dish culture system. A 1 ml collagen gel solution (Nitta Gelatin Co.) was poured into a 30-mm dish (Millicell-CM, Millipore Co.), the inner dish, with a nitrocellulose bottom to form an acellular layer. Next, a 1 ml collagen gel solution containing a total of 0.1 g minced tissues was placed on the acellular layer in the dish. This inner dish was placed into a 90-mm outer dish containing 10 ml Ham's F12 supplemented with 20% FCS and 50 μg/ml gentamicin. The culture assembly was carried out for 7-365 days at 37 C in a humidified atmosphere of 5% CO2 in air, and the medium was changed every 7 days. Where appropriate, murine RSpo1-Fc, Dkk1 or DBZ (Calbiochem) were included in the outer dish medium at 500 ng/ml, 0.5-50 μg/ml and 10 μM respectively with change of medium every 1-2 days.
This culture system maintains the cultured cells embedded in the collagen gel under an air-liquid interface environment. Before preparing the tissue, an inner dish with collagen gel bottom layer should be made. The following procedure is done using Cellmatrix type I-A (Nitta Gelatin Inc.) as a premixed type I collagen gel, however, other products are able to use as an extracellular matrix, such as matrigel. The inner dish should have permeable and/or pored membrane bottom, such as a cell culture insert. […]

Assay [1] deals with intestinal epithelial proliferation. Particulars: cited from earlier work.

B1: RSpo1: secreted glycoprotein, Wnt agonist, Genbank Accession NP_001033722 (protein, UniProt Q2MKA7 21-263, looked up)
R-spondin-1: SRGIKGKRQRRISAEGSQACAKGCELCSEVNGCLKCSPKLFILLERNDIRQVGVCLPSCPPGYFDARNPDMNKCIKCKIEHCEACFSHNFCTKCKEGLYLHKGRCYPACPEGSSAANGTMECSSPAQCEMSEWSPWGPCSKKQQLCGFRRGSEERTRRVLHAPVGDHAACSDTKETRRCTVRRVPCPEGQKRRKGGQGRRENANRNLARKESKEAGAGSRRRKGQQQQQQQGTVGPLTSAGPA
Take B1: the figures for the explant growth result in the assay on intestinal explants and in the assay on intestinal explants (listed as R-Spondin1) were “stimulation; also recorded: markedly stimulated; also recorded: increased growth” and “promoted”, respectively. Besides, the “intestinal proliferation in vivo” value in assay [1] was “strongly augments intestinal proliferation in vivo; also recorded: strongly induce intestinal proliferation in vivo”.

B2: Dkk1: Wnt inhibitor; murine Dkk1 bearing N-terminal HA-tag and C-terminal FLAG and 6×His tags (protein, UniProt O54908 32-272, looked up)
Dickkopf-related protein 1: TLNSVLINSNAIKNLPPPLGGAGGQPGSAVSVAPGVLYEGGNKYQTLDNYQPYPCAEDEECGSDEYCSSPSRGAAGVGGVQICLACRKRRKRCMRHAMCCPGNYCKNGICMPSDHSHFPRGEIEESIIENLGNDHNAAAGDGYPRRTTLTSKIYHTKGQEGSVCLRSSDCAAGLCCARHFWSKICKPVLKEGQVCTKHKRKGSHGLEIFQRCYCGEGLACRIQKDHHQASNSSRLHTCQRH
modifications: N-terminal HA tag, C-terminal FLAG and 6xHis tags
notes: murine Dkk1 bearing N-terminal HA-tag and C-terminal FLAG and 6×His tags
In the case of B2, the “effect on epithelial layer of pre-established spheres” value in the assay on intestinal explants (d28 pre-established small or large intestine spheres, treated additional 5d) is on record as “rapid degeneration of the epithelial layer”. Also, the explant growth result with intestinal explants is on record as “inhibited; also recorded: strong inhibition of explant growth”. Further, the “long-term regrowth after transient treatment” value in the assay with intestinal explants (jejunal explants, 50 μg/ml for 7 days, then 35d without Dkk1) is “lack of long-term repopulation; also recorded: sufficient to ablate culture growth; also recorded: No growth of intestinal spheres was observed”. Besides, in the assay with intestinal explants (recombinant protein at plating), the “growth when added to culture media at the time of plating” value is “dose-dependent growth inhibition”. Also, in assay [1], the “intestinal proliferation in vivo” value is “rapid cessation of intestinal epithelial proliferation and crypt loss”.
